Patent US20150283275A1 (MorphoSys, published 2015)

Key:
Human CD38 [1] = target: T1, Human CD38 (human, UniProt P28907 1-300); assay: cell-based or functional assay
Human CD38 [2] = target: T1, Human CD38; assay: cell binding assay, apparently on OPM2 myeloma cells (method cited from Huber et al 2003)

B1: ^213Bi-anti-CD38-MAb (antibody, V domains shown)
VH: QVQLVESGGGLVQPGGSLRLSCAASGFTFSSYYMNWVRQAPGKGLEWVSGISGDPSNTYYADSVKGRFTISRDNSKNTLYLQMNSLRAEDTAVYYCARDLPLVYTGFAYWGQGTLVTVSS
VL: DIELTQPPSVSVAPGQTARISCSGDNLRHYYVYWYQQKPGQAPVLVIYGDSKRPSGIPERFSGSNSGNTATLTISGTQAEDEADYYCQTYTGGASLVFGGGTKLTVLG
γH2AX foci per cell (DNA double-strand breaks) 0.5 h after treatment, OPM2 cells compared to ARH77 cells (Human CD38 [1]): ~2.5 fold

B2: CHX-A″-DPTA-anti-CD38-MAb (antibody, V domains shown)
VH: B1 VH
VL: B1 VL
notes: Anti-CD38-MAb MOR03087 (= MOR202) covalently coupled to SCN-CHX-A″-DTPA; also called Chelated anti-CD38-MAb; CHX-A″-DTPA conjugate of MOR03087 (MOR202)
EC50 (Human CD38 [2]): 16.4 nM
